Measured values as given in PMC12657969.

T1: GgeAgo_DM (Geobacillus genomosp. 3, UniProt S5Z517 1-710, D502A;D571A)
T1 sequence: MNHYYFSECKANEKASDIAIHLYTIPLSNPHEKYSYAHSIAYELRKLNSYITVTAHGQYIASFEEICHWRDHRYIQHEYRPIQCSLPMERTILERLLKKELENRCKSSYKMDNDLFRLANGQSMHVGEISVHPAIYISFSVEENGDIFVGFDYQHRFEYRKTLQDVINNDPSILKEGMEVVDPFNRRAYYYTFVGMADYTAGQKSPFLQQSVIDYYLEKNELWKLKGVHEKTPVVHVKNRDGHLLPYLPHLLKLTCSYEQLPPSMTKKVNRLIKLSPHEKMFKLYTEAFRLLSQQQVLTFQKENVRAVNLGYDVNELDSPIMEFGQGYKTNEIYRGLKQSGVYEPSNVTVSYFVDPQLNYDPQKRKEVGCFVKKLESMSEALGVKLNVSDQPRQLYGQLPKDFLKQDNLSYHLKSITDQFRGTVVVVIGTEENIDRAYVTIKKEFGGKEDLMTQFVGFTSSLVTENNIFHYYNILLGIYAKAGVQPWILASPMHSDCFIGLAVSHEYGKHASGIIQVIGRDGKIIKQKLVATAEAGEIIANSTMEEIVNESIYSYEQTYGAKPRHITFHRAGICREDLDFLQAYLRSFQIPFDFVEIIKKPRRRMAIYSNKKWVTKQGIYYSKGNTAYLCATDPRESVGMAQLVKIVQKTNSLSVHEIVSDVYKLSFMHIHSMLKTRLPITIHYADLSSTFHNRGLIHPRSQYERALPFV

T2: GgeAgo (Geobacillus genomosp. 3, UniProt S5Z517 1-710)
T2 sequence: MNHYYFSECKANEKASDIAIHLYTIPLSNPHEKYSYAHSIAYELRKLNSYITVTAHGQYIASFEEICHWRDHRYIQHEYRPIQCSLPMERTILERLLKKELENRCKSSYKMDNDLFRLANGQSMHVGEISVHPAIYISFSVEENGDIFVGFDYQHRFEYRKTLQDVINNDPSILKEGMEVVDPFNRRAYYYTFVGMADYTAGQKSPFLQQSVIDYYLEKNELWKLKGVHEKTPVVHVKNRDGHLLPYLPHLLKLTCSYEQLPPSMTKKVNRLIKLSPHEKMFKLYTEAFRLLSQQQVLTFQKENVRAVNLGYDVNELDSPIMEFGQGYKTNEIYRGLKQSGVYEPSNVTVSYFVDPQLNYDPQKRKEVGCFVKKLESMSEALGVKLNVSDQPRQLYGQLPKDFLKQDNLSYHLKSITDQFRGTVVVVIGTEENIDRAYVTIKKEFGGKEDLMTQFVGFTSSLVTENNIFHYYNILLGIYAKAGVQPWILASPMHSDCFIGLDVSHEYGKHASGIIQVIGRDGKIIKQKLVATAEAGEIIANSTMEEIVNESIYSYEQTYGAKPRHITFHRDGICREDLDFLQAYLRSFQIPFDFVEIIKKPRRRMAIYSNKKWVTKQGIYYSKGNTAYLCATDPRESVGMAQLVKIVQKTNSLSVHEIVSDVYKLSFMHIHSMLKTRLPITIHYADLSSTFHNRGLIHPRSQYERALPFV

B1: 5'P-gDNA / U-tRNA (RNA target) (DNA:RNA)
DNA: TGAGGTAGTAGGTTGTAT
RNA: AAACGACGGCCAGUGCCAAGCUUACUAUACAACCUACUACCUCAU
modifications: guide 5' phosphate
B2: 5'OH-gDNA / U-tRNA (RNA target) (DNA:RNA)
DNA: TGAGGTAGTAGGTTGTAT
RNA: AAACGACGGCCAGUGCCAAGCUUACUAUACAACCUACUACCUCAU
modifications: guide 5' OH
B3: 5'P-gDNA / T-tDNA target (mixed)
DNA 1: TGAGGTAGTAGGTTGTAT
DNA 2: AAACGACGGCCAGTGCCAAGCTTACTATACAACCTACTACCTCAT
modifications: guide 5' phosphate
B4: 5'OH-gDNA / T-tDNA target (mixed)
DNA 1: TGAGGTAGTAGGTTGTAT
DNA 2: AAACGACGGCCAGTGCCAAGCTTACTATACAACCTACTACCTCAT
modifications: guide 5' OH

What follows are binders tested against T1, GgeAgo_DM (assay: fluorescence polarization).

Compared with B1, B2 is 3-fold higher in Kd: 10.7 ± 1.11 nM for the first, 32.2 ± 4.9 nM for the second.

Compared with B3, B4 is 2.3-fold higher in Kd: 8.69 ± 1.28 nM for the first, 20 ± 2.29 nM for the second. The first binds more tightly here.

What follows are binders tested against T2, GgeAgo (assay: fluorescence polarization).

TGAGGTAGTAGGTTGTAT (ssDNA, 5' phosphate) [5'P-gDNA (T-gDNA iFAM)] and TGAGGTAGTAGGTTGTAT (ssDNA, 5' OH) [5'OH-gDNA (T-gDNA iFAM)] are within error of each other in Kd: 8.23 ± 1.47 nM for the first, 11.1 ± 1.88 nM for the second.
